From patent CN106084046A (UNIV SUN YAT SEN, dated 2016)

B1: 抗CD3单域抗体 A30249 (VHH)
VHH: QVKLEESGGGLVQAGGSLRVSCTASGRTFDTMGWFRQAPGKEREFVAAVRWSSGNTLYGNTVKGRFTISRDTATNTVYLQMSSLKHEDTAVYYCAARVGGRGAADHWGQGTQVTVSS
notes: Llama sdAb from a phage display library; Tested as sdAb-SASA protein in crude expression medium / culture supernatant, not purified; also called sdAb; sdAb-SASA; not shown: SASA fusion partner from the pFASEBA vector (sdAb-SASA protein in expression medium)

Key:
[1] = biological target: CD3 on Jurkat靶标细胞 (human) (UniProt P07766); assay: flow cytometry, culture supernatant of the negative control sdAb on Jurkat cells (TG1 background supernatant: 132.03)
[2] = biological target: CD3 on Jurkat靶标细胞 (human) (UniProt P07766); assay: flow cytometry, culture supernatant on Jurkat cells
CD3-His蛋白(MP-5) = biological target: T1, CD3-His蛋白(MP-5) (human, UniProt P07766 23-126); assay: BLI (Octet RED96) off-rate screen, sdAb-SASA from expression medium captured on BSA-coated biosensor, 100 nM CD3 in solution, 30°C, 1:1 Langmuir model
T1 construct: Immunogen and panning antigen; also called CD3蛋白; not shown: His tag
T1 sequence (P07766 23-126): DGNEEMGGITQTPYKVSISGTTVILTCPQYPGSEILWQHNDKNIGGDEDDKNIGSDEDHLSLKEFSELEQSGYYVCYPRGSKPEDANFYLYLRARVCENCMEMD

Row | Molecule | MFI [1] | MFI [2] | koff (CD3-His蛋白(MP-5))
1 | NC-sdAb(相同形式的非相关性sdAb) (VHH) | 115 MFI |  | 
2 | B1 |  | 217 MFI | 4.92e-05 s⁻¹
